We go through one molecule from PMC12720113, “The binding mechanism of a novel ferrous ion chelating peptide from chicken blood hemoglobin and the bioavailability of the chelate” (Food Chemistry: X, 2025).

This data set has as its system Caco-2 cells. In words: Caco-2 cell viability assay (MTT). Format: cell-based. The settings on record: 24 h, 490 nm, means ± SEM. The procedure:
Caco-2 cell viability assay was conducted on […]-Fe according to the method of [Wu et al. (2019)]. And lactoferrin was chosen as an experimental control. When the cell fusion rate was close to 80 %, the cells were dissociated and passaged using the trypsin-EDTA mixed digest. Cultivate the 23rd generation of cells in the logarithmic growth phase at 37 °C and 5 % CO₂ for 24 h. Then, a gradient concentration of […]-Fe and Ac-[…]-Fe was added to the wells of the experimental group, and all the samples were incubated for 24 h. After incubation, 20 μL of MTT reagent was added to each well. After 2 h of reaction, 150 μL of DMSO was added and agitated for 10 min. The absorbance values at 490 nm were measured to reflect cell activity levels. Cell relative activity (%) was calculated:(3) Relative cell viability%=As−Ab/Ac−Ab×100 where: As represents the absorbance value of the sample treatment, Ab represents the absorbance value without cells, and Ac represents the absorbance value without sample treatment.

B1: lactoferrin (protein, UniProt P24627 20-708, looked up)
Lactotransferrin: APRKNVRWCTISQPEWFKCRRWQWRMKKLGAPSITCVRRAFALECIRAIAEKKADAVTLDGGMVFEAGRDPYKLRPVAAEIYGTKESPQTHYYAVAVVKKGSNFQLDQLQGRKSCHTGLGRSAGWIIPMGILRPYLSWTESLEPLQGAVAKFFSASCVPCIDRQAYPNLCQLCKGEGENQCACSSREPYFGYSGAFKCLQDGAGDVAFVKETTVFENLPEKADRDQYELLCLNNSRAPVDAFKECHLAQVPSHAVVARSVDGKEDLIWKLLSKAQEKFGKNKSRSFQLFGSPPGQRDLLFKDSALGFLRIPSKVDSALYLGSRYLTTLKNLRETAEEVKARYTRVVWCAVGPEEQKKCQQWSQQSGQNVTCATASTTDDCIVLVLKGEADALNLDGGYIYTAGKCGLVPVLAENRKSSKHSSLDCVLRPTEGYLAVAVVKKANEGLTWNSLKDKKSCHTAVDRTAGWNIPMGLIVNQTGSCAFDEFFSQSCAPGADPKSRLCALCAGDDQGLDKCVPNSKEKYYGYTGAFRCLAEDVGDVAFVKNDTVWENTNGESTADWAKNLNREDFRLLCLDGTRKPVTEAQSCHLAVAPNHAVVSRSDRAAHVKQVLLHQQALFGKNGKNCPDKFCLFKSETKNLLFNDNTECLAKLGGRPTYEEYLGTEYVTAIANLKKCSTSPLLEACAFLTR
notes: conventional iron supplement, experimental control
For the molecule B1, the “Relative vitality of cells (%)” value by setting is: (Caco-2, 0.125 mg/mL) 92.86 ± 1.03%; (Caco-2, 0.25 mg/mL) 81.43 ± 0.94%; (Caco-2, 0.5 mg/mL) 77.76 ± 1.27%; (Caco-2, 1 mg/mL) 74.83 ± 0.84%; (Caco-2, 2 mg/mL) 66.90 ± 1.42%.
